Biological target: aph1a_human APH1A (UniProt Q96BI3)
Sequence (Q96BI3 whole entry): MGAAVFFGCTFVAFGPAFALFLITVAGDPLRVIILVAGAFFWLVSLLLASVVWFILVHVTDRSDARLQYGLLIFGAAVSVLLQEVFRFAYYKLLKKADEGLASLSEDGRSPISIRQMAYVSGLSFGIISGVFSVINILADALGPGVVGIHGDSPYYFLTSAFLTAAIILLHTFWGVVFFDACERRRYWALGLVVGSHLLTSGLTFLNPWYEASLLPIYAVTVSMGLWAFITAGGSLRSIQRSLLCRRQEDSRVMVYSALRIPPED

**Q.** “Presenilin-1 (Homo sapiens) (from UniProt P49768) G206D” was tested. Which “effect of a mutation on the interaction” value did it give?
**A.** with no effect

Source: IntAct's records for PubMed 25394380
